According to article PMC6753080:

Assays:
[1] = molecular target: 6xHis-MBP-ERC1 fusion protein (mouse); experiment: static light scattering; purified ERC1 on a Viskotek TDAMax system; data averaged across the protein elution volume; protein purified in 20 mM HEPES pH 7.4, 250 mM NaCl, 0.5 mM TCEP
[2] = molecular target: 6xHis-MBP-ERC1 fusion protein (mouse); experiment: rotary shadowing electron microscopy; purified MBP-ERC1 diluted in spraying buffer (100 mM ammonium acetate, 30% glycerol), sprayed onto mica, platinum and carbon coated
GFP-ERC1 (mouse) = experiment: Numbers & Brightness; cytoplasm of living COS7 cells expressing GFP-ERC1; brightness compared with monomeric and dimeric GFP; confocal time series of 300 images

Chain of GFP-ERC1 (Q99MI1 whole entry): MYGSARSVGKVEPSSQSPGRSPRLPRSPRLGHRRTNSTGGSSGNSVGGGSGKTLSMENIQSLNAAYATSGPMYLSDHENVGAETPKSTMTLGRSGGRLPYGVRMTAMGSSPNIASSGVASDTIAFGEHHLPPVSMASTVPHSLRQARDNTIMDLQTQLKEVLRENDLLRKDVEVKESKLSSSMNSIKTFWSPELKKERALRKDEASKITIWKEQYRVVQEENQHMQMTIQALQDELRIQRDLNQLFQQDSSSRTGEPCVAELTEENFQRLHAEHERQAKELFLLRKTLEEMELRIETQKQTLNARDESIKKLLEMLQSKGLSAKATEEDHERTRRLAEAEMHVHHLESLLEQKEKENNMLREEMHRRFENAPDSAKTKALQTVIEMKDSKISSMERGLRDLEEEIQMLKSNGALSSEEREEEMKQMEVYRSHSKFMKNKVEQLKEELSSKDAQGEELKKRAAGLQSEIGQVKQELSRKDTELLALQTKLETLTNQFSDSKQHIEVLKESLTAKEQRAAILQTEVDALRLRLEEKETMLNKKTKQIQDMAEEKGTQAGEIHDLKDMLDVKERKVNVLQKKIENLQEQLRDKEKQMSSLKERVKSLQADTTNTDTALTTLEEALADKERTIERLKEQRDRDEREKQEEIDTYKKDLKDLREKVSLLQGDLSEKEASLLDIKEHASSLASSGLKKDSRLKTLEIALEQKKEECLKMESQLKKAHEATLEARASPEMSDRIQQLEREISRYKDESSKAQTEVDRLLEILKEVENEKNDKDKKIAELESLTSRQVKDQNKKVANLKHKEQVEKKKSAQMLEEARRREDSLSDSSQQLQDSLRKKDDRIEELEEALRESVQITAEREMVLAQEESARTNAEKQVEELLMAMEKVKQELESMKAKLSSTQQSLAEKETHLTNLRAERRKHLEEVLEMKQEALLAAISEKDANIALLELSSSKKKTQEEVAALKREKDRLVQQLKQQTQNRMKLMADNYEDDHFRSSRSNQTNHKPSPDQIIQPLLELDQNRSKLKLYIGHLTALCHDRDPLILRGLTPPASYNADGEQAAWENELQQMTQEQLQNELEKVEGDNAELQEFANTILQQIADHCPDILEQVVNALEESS

6xHis-MBP-ERC1 fusion protein (natural protein)
stoichiometry N [1]: 2 | stoichiometry N [2]: 2

GFP-ERC1 (natural protein)
brightness ratio to monomeric GFP (GFP-ERC1 (mouse)): 2.1 | stoichiometry N (GFP-ERC1 (mouse)): 2
